The text below walks through data of patent CN110885376A (SHANGHAI NOVAMAB BIOPHARMACEUTICALS CO LTD, dated 2020).

This experiment concerns the target T1, CD20 (UniProt P11836 1-297, limits assumed).
T1 construct: whole, on cells; Endogenous CD20 of Raji cells; also called 白细胞分化抗原20; 细胞表面CD20
T1 sequence (looked up): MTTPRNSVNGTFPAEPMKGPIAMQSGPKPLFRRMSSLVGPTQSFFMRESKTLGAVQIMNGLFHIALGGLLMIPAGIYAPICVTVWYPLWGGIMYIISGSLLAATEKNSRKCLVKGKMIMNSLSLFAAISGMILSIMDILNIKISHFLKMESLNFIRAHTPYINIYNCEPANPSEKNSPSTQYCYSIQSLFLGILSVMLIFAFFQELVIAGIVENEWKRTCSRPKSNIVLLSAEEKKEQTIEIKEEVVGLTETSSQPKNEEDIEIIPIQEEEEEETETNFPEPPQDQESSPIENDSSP
Put plainly: flow cytometry on Raji cells (CD47 first blocked with Nb1902), anti-hFc-FITC. For orientation: A flow cytometer gives signals particle by particle.

B1: 利妥昔单抗 (antibody, human IgG1, kappa, L234A L235A, V domains shown)
VH: QVQLQQPGAELVKPGASVKMSCKASGYTFTSYNMHWVKQTPGRGLEWIGAIYPGNGDTSYNQKFKGKATLTADKSSSTAYMQLSSLTSEDSAVYYCARSTYYGGDWYFNVWGAGTTVTVSA
VL: QIVLSQSPAILSASPGEKVTMTCRASSSVSYIHWFQQKPGSSPKPWIYATSNLASGVPVRFSGSGSGTSYSLTISRVEAEDAATYYCQQWTSNPPTFGGGTKLEIKR
notes: also called 对照抗体利妥昔; rituximab
In turn, B1 yielded an EC50 of 5.67 µg/mL.

Broadly, the EC50 is the concentration that produces a half-maximal response. Read a high EC50 as weaker potency.
